Data: PMC8933513 (2022)
Substitutions are numbered along the chain they refer to.

How the values were obtained:
Test in all cases: SPR
[1] = biological target: T1, pAPN ectodomain K374A mutant (pig, UniProt P15145 58-961, K374A)
T1 sequence: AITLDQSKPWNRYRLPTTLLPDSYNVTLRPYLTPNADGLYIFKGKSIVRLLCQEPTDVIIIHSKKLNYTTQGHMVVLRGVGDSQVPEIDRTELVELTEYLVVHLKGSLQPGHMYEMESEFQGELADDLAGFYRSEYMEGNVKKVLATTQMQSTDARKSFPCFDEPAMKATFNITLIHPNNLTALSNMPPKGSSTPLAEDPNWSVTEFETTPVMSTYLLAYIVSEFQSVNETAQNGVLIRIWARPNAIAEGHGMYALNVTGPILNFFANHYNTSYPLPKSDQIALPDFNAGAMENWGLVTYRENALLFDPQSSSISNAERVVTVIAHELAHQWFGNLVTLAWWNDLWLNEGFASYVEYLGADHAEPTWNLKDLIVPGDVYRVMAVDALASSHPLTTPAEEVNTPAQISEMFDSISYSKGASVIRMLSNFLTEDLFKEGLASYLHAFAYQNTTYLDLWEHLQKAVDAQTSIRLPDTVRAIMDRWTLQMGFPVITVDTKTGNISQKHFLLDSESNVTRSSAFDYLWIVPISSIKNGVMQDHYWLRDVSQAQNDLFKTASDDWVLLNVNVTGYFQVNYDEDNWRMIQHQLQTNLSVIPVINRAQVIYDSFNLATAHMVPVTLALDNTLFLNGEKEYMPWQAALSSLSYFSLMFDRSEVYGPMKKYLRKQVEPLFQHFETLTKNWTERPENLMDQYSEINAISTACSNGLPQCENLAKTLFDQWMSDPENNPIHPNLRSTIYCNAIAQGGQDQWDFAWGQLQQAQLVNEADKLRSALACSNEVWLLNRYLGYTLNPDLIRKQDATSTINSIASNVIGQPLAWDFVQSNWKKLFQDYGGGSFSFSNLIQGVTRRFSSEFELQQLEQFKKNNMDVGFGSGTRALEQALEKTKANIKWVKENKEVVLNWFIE

[2] = biological target: hAPN ectodomain H789A mutant (human, UniProt P15144 62-963, H789A)
[3] = biological target: T2, pAPN ectodomain E421A mutant (pig, UniProt P15145 58-961, E421A)
T2 sequence: T1 sequence with A317K, E364A

[4] = biological target: hAPN ectodomain E742A mutant (human, UniProt P15144 62-963, E742A)
[5] = biological target: hAPN ectodomain E426A mutant (human, UniProt P15144 62-963, E426A)
[6] = biological target: T3, human aminopeptidase N (hAPN) ectodomain, residues 62-963, wild type (human, UniProt P15144 62-963)
T3 chain: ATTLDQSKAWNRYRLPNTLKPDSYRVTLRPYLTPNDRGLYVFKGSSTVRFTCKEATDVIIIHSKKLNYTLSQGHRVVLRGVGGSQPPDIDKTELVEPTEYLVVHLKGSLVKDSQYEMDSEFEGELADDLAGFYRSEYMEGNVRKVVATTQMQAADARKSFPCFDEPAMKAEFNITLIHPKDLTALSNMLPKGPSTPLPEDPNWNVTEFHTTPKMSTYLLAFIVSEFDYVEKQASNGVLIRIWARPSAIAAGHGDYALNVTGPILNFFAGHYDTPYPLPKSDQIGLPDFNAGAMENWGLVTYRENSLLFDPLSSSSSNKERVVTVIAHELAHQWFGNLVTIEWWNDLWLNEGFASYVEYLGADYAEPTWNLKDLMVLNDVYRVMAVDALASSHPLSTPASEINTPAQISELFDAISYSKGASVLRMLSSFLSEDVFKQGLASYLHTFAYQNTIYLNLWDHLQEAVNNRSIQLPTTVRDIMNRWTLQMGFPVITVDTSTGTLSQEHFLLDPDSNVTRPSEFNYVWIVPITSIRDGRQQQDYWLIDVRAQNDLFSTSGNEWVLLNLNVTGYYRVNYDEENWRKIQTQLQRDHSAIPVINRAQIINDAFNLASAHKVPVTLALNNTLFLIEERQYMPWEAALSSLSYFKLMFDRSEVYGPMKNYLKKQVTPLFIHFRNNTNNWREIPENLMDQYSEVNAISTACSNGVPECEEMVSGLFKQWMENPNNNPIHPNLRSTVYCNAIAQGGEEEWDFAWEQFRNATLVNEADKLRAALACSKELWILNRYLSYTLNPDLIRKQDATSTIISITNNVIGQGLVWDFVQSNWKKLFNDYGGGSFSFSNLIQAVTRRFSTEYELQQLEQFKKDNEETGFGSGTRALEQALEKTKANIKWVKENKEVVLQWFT

B1: PDCoV spike (S) protein receptor binding domain (RBD), residues 300-419, wild type (domain or fragment)
chain: PKLPELEVVQLNISAHMDFGEARLDSVTINGNTSYCVTKPYFRLETNFMCTGCTMNLRTDTCSFDLSAVNNGMSFSQFCLSTESGACEMKIIVTYVWNYLLRQRLYVTAVEGQTHTGTTS
For B1, the Kd [1] was greater than 1000 µM, the Kd [2] was 6.25 µM and the Kd [3] was 125 µM. The Kd [4] was 13.7 µM, the Kd [5] was 334 µM and the Kd [6] was 3.71 µM.
